Results: doi:10.1101/2023.12.08.570889 (bioRxiv, 2023)
Each block holds one binder with its values, some of them ahead of it.

Experiments:
Assay in all cases: SPR
IL36R = IL36R (Homo sapiens (assumed), UniProt Q9HB29)
CD40 = CD40 (Homo sapiens (assumed), UniProt P25942)
IL17A = IL17A (Homo sapiens (assumed), UniProt Q16552)
Sequence of IL17A (Q16552 24-155): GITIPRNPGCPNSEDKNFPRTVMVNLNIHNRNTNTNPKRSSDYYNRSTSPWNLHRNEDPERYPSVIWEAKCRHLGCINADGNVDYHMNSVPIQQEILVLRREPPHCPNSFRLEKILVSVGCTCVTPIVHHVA

Sequence of CD40 (P25942 21-193): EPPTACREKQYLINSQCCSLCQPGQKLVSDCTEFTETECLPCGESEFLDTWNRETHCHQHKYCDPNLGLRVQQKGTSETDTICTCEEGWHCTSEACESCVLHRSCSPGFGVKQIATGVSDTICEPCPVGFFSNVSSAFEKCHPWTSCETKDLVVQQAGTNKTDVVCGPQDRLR
Sequence of IL36R (Q9HB29 20-335): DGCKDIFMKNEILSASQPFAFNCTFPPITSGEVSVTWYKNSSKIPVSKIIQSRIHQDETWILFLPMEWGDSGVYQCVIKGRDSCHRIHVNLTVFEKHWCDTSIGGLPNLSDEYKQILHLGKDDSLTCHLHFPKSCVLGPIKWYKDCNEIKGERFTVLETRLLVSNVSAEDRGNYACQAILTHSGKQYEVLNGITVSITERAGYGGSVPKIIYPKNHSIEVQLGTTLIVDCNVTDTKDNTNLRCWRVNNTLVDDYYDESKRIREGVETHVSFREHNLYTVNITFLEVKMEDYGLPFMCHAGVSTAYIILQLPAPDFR

binding result (IL36R): binds
B1: Spesolimab (Fab, V domains shown)
VH: QVQLVQSGAEVKKPGASVKVSCKASGYSFTSSWIHWVKQAPGQGLEWMGEINPGNVRTNYNENFRNKVTMTVDTSISTAYMELSRLRSDDTAVYYCTVVFYGEPYFPYWGQGTLVTVSS
VL: QIVLTQSPGTLSLSPGERATMTCTASSSVSSSYFHWYQQKPGQAPRLWIYRTSRLASGVPDRFSGSGSGTDFTLTISRLEPEDAATYYCHQFHRSPLTFGAGTKLEIK

binding result (CD40): binds
B2: Ravagalimab (Fab, V domains shown)
VH: EVQLVESGGGLVKPGGSLRLSCAASGFTFSDYGMNWVRQAPGKGLEWIAYISSGRGNIYYADTVKGRFTISRDNAKNSLYLQMNSLRAEDTAVYYCARSWGYFDVWGQGTTVTVSS
VL: DIVMTQSPDSLAVSLGERATINCKSSQSLLNRGNQKNYLTWFQQKPGQPPKLLIYWASTRESGVPDRFSGSGSGTDFTLTISSLQAEDVAVYYCQNDYTYPLTFGQGTKLEIK

binding result (IL17A): binds
B3: Afasevikumab (Fab, V domains shown)
VH: EVQLVESGGGLVQPGRSLRLSCAASGFTFDDYAMHWVRQAPGKGLEWVSGINWSSGGIGYADSVKGRFTISRDNAKNSLYLQMNSLRAEDTALYYCARDIGGFGEFYWNFGLWGRGTLVTVSS
VL: not shown
